± gives the uncertainty stated by the source.

Sequences and labels used below:
B1: Double-stranded RNA-binding protein Staufen homolog 1, residues 183 to 249; numbered along this chain, O95793 (parent)
chain: KSEISQVFEIALKRNLPVNFEVARESGPPHMKNFVTKVSVGEFVGEGEGKSKKISKKNAAIAVLEEL

Variants of B1 are the subject of the data set. Put plainly: abundance fitness (aPCA) (normalised: wild type 0, dead -1); higher = more abundant; growth selection in yeast, the domain comes from the species named. Particulars: Homo sapiens.
On to KSEISQVFEIALKRNLPVNFEVAEESGPPHMKNFVTKVSVGEFVGEGEGKSKKISKKNAAIAVLEEL [R24E], for which the abundance fitness was -0.031 ± 0.044. The same measure for KSEISQVFEIALKRNLPVNFEVATESGPPHMKNFVTKVSVGEFVGEGEGKSKKISKKNAAIAVLEEL [R24T]: -0.085 ± 0.045; for KSEISQVFEIALKRNLPVNFEVAPESGPPHMKNFVTKVSVGEFVGEGEGKSKKISKKNAAIAVLEEL [R24P]: -0.035 ± 0.051; for KSEISQVFEIALKRNLPVNFEVAGESGPPHMKNFVTKVSVGEFVGEGEGKSKKISKKNAAIAVLEEL [R24G]: -0.196 ± 0.037. As for KSEISQVFEIALKRNLPVNFEVACESGPPHMKNFVTKVSVGEFVGEGEGKSKKISKKNAAIAVLEEL [R24C], the abundance fitness is -0.045 ± 0.074. The same measure for KSEISQVFEIALKRNLPVNFEVAVESGPPHMKNFVTKVSVGEFVGEGEGKSKKISKKNAAIAVLEEL [R24V]: -0.102 ± 0.036. As to KSEISQVFEIALKRNLPVNFEVALESGPPHMKNFVTKVSVGEFVGEGEGKSKKISKKNAAIAVLEEL [R24L], the abundance fitness was -0.129 ± 0.035. Under KSEISQVFEIALKRNLPVNFEVAWESGPPHMKNFVTKVSVGEFVGEGEGKSKKISKKNAAIAVLEEL [R24W] stands -0.256 ± 0.038; under KSEISQVFEIALKRNLPVNFEVAHESGPPHMKNFVTKVSVGEFVGEGEGKSKKISKKNAAIAVLEEL [R24H], -0.118 ± 0.073; under KSEISQVFEIALKRNLPVNFEVANESGPPHMKNFVTKVSVGEFVGEGEGKSKKISKKNAAIAVLEEL [R24N], -0.207 ± 0.069. With KSEISQVFEIALKRNLPVNFEVAAESGPPHMKNFVTKVSVGEFVGEGEGKSKKISKKNAAIAVLEEL [R24A], the abundance fitness is -0.132 ± 0.047. Under KSEISQVFEIALKRNLPVNFEVAQESGPPHMKNFVTKVSVGEFVGEGEGKSKKISKKNAAIAVLEEL [R24Q] stands -0.085 ± 0.042.

For the variant KSEISQVFEIALKRNLPVNFEVAKESGPPHMKNFVTKVSVGEFVGEGEGKSKKISKKNAAIAVLEEL [R24K], the abundance fitness was 0.016 ± 0.049. The same measure for KSEISQVFEIALKRNLPVNFEVASESGPPHMKNFVTKVSVGEFVGEGEGKSKKISKKNAAIAVLEEL [R24S]: -0.065 ± 0.039. KSEISQVFEIALKRNLPVNFEVARESAPPHMKNFVTKVSVGEFVGEGEGKSKKISKKNAAIAVLEEL [G27A]: the abundance fitness was -0.239 ± 0.043. The same measure for KSEISQVFEIALKRNLPVNFEVARESFPPHMKNFVTKVSVGEFVGEGEGKSKKISKKNAAIAVLEEL [G27F]: -0.436 ± 0.071; for KSEISQVFEIALKRNLPVNFEVARESDPPHMKNFVTKVSVGEFVGEGEGKSKKISKKNAAIAVLEEL [G27D]: -0.259 ± 0.046.

For the variant KSEISQVFEIALKRNLPVNFEVARESCPPHMKNFVTKVSVGEFVGEGEGKSKKISKKNAAIAVLEEL [G27C], the abundance fitness is -0.366 ± 0.076.

KSEISQVFEIALKRNLPVNFEVARESIPPHMKNFVTKVSVGEFVGEGEGKSKKISKKNAAIAVLEEL [G27I]: the abundance fitness was -0.223 ± 0.12. Under KSEISQVFEIALKRNLPVNFEVARESHPPHMKNFVTKVSVGEFVGEGEGKSKKISKKNAAIAVLEEL [G27H] stands -0.326 ± 0.11; under KSEISQVFEIALKRNLPVNFEVARESEPPHMKNFVTKVSVGEFVGEGEGKSKKISKKNAAIAVLEEL [G27E], -0.339 ± 0.049; under KSEISQVFEIALKRNLPVNFSVARESGPPHMKNFVTKVSVGEFVGEGEGKSKKISKKNAAIAVLEEL [E21S], -0.078 ± 0.043. Under KSEISQVFEIALKRNLPVNFYVARESGPPHMKNFVTKVSVGEFVGEGEGKSKKISKKNAAIAVLEEL [E21Y] stands -0.172 ± 0.076.

Take KSEISQVFEIALKRNLPVNFWVARESGPPHMKNFVTKVSVGEFVGEGEGKSKKISKKNAAIAVLEEL [E21W]: the abundance fitness was -0.009 ± 0.053. In the case of KSEISQVFEIALKRNLPVNFVVARESGPPHMKNFVTKVSVGEFVGEGEGKSKKISKKNAAIAVLEEL [E21V], the abundance fitness is -0.023 ± 0.043. Take KSEISQVFEIALKRNLPVNFEVARPSGPPHMKNFVTKVSVGEFVGEGEGKSKKISKKNAAIAVLEEL [E25P]: the abundance fitness is -0.209 ± 0.055. In the case of KSEISQVFEIALKRNLPVNFEVARVSGPPHMKNFVTKVSVGEFVGEGEGKSKKISKKNAAIAVLEEL [E25V], the abundance fitness is -0.025 ± 0.043. Under KSEISQVFEIALKRNLPVNFEVARSSGPPHMKNFVTKVSVGEFVGEGEGKSKKISKKNAAIAVLEEL [E25S] stands 0.002 ± 0.038; under KSEISQVFEIALKRNLPVNFEVARGSGPPHMKNFVTKVSVGEFVGEGEGKSKKISKKNAAIAVLEEL [E25G], -0.075 ± 0.045. For the variant KSEISQVFEIALKRNLPVNFEVARKSGPPHMKNFVTKVSVGEFVGEGEGKSKKISKKNAAIAVLEEL [E25K], the abundance fitness worked out at 0.046 ± 0.055. Under KSEISQVFEIALKRNLPVNFEVARTSGPPHMKNFVTKVSVGEFVGEGEGKSKKISKKNAAIAVLEEL [E25T] stands 0.016 ± 0.051; under KSEISQVFEIALKRNLPVNFEVARRSGPPHMKNFVTKVSVGEFVGEGEGKSKKISKKNAAIAVLEEL [E25R], -0.046 ± 0.036.

Consider KSEISQVFEIALKRNLPVNFEVARLSGPPHMKNFVTKVSVGEFVGEGEGKSKKISKKNAAIAVLEEL [E25L], for which the abundance fitness was -0.083 ± 0.034. Under KSEISQVFEIALKRNLPVNFEVARQSGPPHMKNFVTKVSVGEFVGEGEGKSKKISKKNAAIAVLEEL [E25Q] stands 0.021 ± 0.051; under KSEISQVFEIALKRNLPVNFEVARASGPPHMKNFVTKVSVGEFVGEGEGKSKKISKKNAAIAVLEEL [E25A], -0.081 ± 0.055. Consider KSEISQVFEIALKRNLPVNFEVARHSGPPHMKNFVTKVSVGEFVGEGEGKSKKISKKNAAIAVLEEL [E25H], for which the abundance fitness was -0.052 ± 0.064. KSEISQVFEIALKRNLPVNFEVARCSGPPHMKNFVTKVSVGEFVGEGEGKSKKISKKNAAIAVLEEL [E25C]: the abundance fitness was -0.104 ± 0.068. The same measure for KSEISQVFEIALKRNLPVNFEVARYSGPPHMKNFVTKVSVGEFVGEGEGKSKKISKKNAAIAVLEEL [E25Y]: -0.151 ± 0.065; for KSEISQVFEIALKRNLPVNFEVARISGPPHMKNFVTKVSVGEFVGEGEGKSKKISKKNAAIAVLEEL [E25I]: -0.141 ± 0.063; for KSEISQVFEIALKRNLPVNFEVARMSGPPHMKNFVTKVSVGEFVGEGEGKSKKISKKNAAIAVLEEL [E25M]: -0.011 ± 0.048.

(Values after the Human Domainome abundance scans (Beltran et al. 2025).)
